We go through 20 sequences from the DeepSol protein solubility set.

The nature of this data set: soluble on expression in E. coli; label from the status in PepcDB or PDB records.
As for “MGSDKIHHHHHHMIRSLWIAKTGLDAQQTQMDVISNNLANVSTNGFKRGRAVFEDLMYQNIRQPGALSSDQTTLPSGLQLGTGVRPVATERIHTQGNPQQTGNSKDVAIIGQGFFQVAMPDGTTAYTRDGSFQVDQNGQLVTSSGFVIQPAITIPANTTSMTVARDGTVSVTQPGSSNNVQVGQLQLATFMNPAGLESMGENLYVQTDASGAPNTTVPGLNGAGVLQQNYVEASNVNVVEELVSMIQTQRAYEINSKAVQTSDQMLQRLTQMG”, the “soluble on expression in E. coli” value is “not soluble”.
In the case of “MSVIYKVVTRPSDPRVPNSPKKYYPHLITLGQSVNLKYIAQKMQGYSSLSIGDIKSVIQNFVEKMKEQLLEGKSVNIEGLGVFMLTACSKGADAAKDVNAKSVDSVRIFFQANKELRITKTATRADEKLDLISLDEYLKKLNASVTPNDPDDGENGGGGNEGGDEEAPDPTV”, the “soluble on expression in E. coli” value is “not soluble”.
Next, “MSLDKPRLQFSIREQVQQLLGGLAGLKNYQVPSKETIADNAYLKQMGVALDVLTKEVEKLKSDDGVSAEAMGDYLYRQVQWVNNIVPTQMDLNRLFATMNTAGIQLEQADILKAKLFKHIHTDKAQYDAMWVACEHLENYFERNVRKVFPNADWYHIEPEHLASFDAERFAAKDETSEALSGLSIAELASQVKASSIPDNTEQEKFETYDLDVETVYCRPIIKFPLLLIHAYRVYLALNDHNDIEPRLHSDRLLEIFDPLINGDEQSVKLFIETLWQVRYQFDRWVVKWVERDDATDAQLGLTYQSRSKSNDTYYINRTQKELTDIVLLQSVRNFTGERSAQYWLTPFLSGLIRSSIKQDSVALELLENIDNKMSLSVDTQKEASFALAEGIEPNCQSWQSQSTYFAKSLGTSFEHYWFQKLEYLIWKKMKASESSLPSEELNKFKKYRITSKNSVEHVHPQNDEYNSRLDCETLNSFGNLVLLSPGENSSYSNQDVDKKRIDFERKSHFDALKLREIFGVKGQGLWGKQQIDNHLEDMMAVFAQHYKEGHHHHHH”: “soluble”; “MGSDKIHHHHHHMNIHVKECGDLEAPLLVFLHGGGVSGWMWSNQVDYFHHYHCIVPDLPHHGLSGRETSFTILNSAEALIRLIEKKAQGRDVIVIGFSLGAQILLQMISINPRLITKAIVNSALVRPIPIPEKLLELSVKSTFPLIKSRWFSRLQAKTLYIDDDLFETYYRESCQMTQDSLTQILKENVSFRLPENVHEISTRILTTVGAKEKRIMKTSATMITHAHPNSTGIIIPSVGHGIPLAKPDQFNQLVDQWLKEERLPHDVGLIEK”: “not soluble”.
Next, “MSLSKIIPFREEIFHQINQILESQKAFIFLWGKSGSGKSVLLQRLAKKYNVDFINENFKDQSFLKEKIEFLISQGQSLIILDEVGMYDYAMLESIRIYSDSISFVLSSHKKLNILKKEHFKSRLSACFKLKNISLLELDDYIKLKFGMNFSNKCLKFLQKISQGNLRYIDKTLKSFYEINSFFDKNKSQEYILKLSALENGLLREGHHHHHH”: “soluble”; “MNELDGIKQFTTVVADSGDIESIRHYHPQDATTNPSLLLKAAGLSQYEHLIDDAIAWGKKNGKTQEQQVVAACDKLAVNFGAEILKIVPGRVSTEVDARLSFDKEKSIEKARHLVDLYQQQGVEKSRILIKLASTWEGIRAAEELEKEGINCNLTLLFSFAQARACAEAGVFLISPFVGRIYDWYQARKPMDPYVVEEDPGVKSVRNIYDYYKQHHYETIVMGASFRRTEQILALTGCDRLTIAPNLLKELQEKVSPVVRKLIPPSQTFPRPAPMSEAEFRWEHNQDAMAVEKLSEGIRLFAVDQRKLEDLLAAKL”: “soluble”.
As for “MDYFDRCYIINLPERRDRRREMEKELERAGMPPMPGRVEFFPAIRPESAGPFPSIGAHGCFLSHLGILRAAKAQGLRNVLILEDDLTFAAQFPEVEEKLVGELRETPWDFAFFGHVLEFPEVPPDRAHLEPYAGPIVTAHFYAVNGAVIDRLLGFLDALLQRPPGHPDGGPMHVDGAYSTFRQQNPDVVTLVAVPSQGWQRSSRSDIAPNRWYDRWPLVRSLVALARRGKTWLRGNRRHAAALEHHHHHH”, the “soluble on expression in E. coli” value is recorded as “not soluble”.
On to “PLLIKNGEIITADSRYKADIYAEGETITRIGQNLEAPPGTEVIDATGKYVFPGFIDPHVHIYLPFMATFAKDTHETGSKAALMGGTTTYIEMCCPSRNDDALEGYQLWKSKAEGNSYCDYTFHMAVSKFDEKTEGQLREIVADGISSFKIFLSYKNFFGVDDGEMYQTLRLAKELGVIVTAHCENAELVGRLQQKLLSEGKTGPEWHEPSRPEAVEAEGTARFATFLETTGATGYVVHLSCKPALDAAMAAKARGVPIYIESVIPHFLLDKTYAERGGVEAMKYIMSPPLRDKRNQKVLWDALAQGFIDTVGTDHCPFDTEQKLLGKEAFTAIPNGIPAIEDRVNLLYTYGVSRGRLDIHRFVDAASTKAAKLFGLFPRKGTIAVGSDADLVVYDPQYRGTISVKTQHVNNDYNGFEGFEIDGRPSVVTVRGKVAVRDGQFVGEKGWGKLLRREPMYF”, for which the “soluble on expression in E. coli” value is given as “soluble”.
In the case of “MNVNRLLIVGAGAFGREVHAWLLDWVKLNPGWVIAGFINDGPGSIARFDHYPAVVSSVEGYEPGPEDYLVCAIAKPADKRLVVEKLLGKGARFFTLIHPSVIMGENVVIGQGAVICPSTVLSVDLRIGAFVTLNIGCLVGHDADIGDFSTLSGHCDITGGVVLEEEVFMGTHASVLPNVKVGKQAVVGAGSVAIRNVAAGITVFGVPAKRISGLEHHHHHH”, the “soluble on expression in E. coli” value is recorded as “not soluble”.
As to “STLSRFAYNGKRCPSSYNILDNSKIISEECRKELTALLHHYYPIEIDPHRTVKEKLPHMVEWWTKAHNLLCQQKIQKFQIAQVVRESNAMLREGYKTFFNTLYHNNIPLFIFSAGIGDILEEIIRQMKVFHPNIHIVSNYMDFNEDGFLQGFKGQLIHTYNKNSSVCENCGYFQQLEGKTNVILLGDSIGDLTMADGVPGVQNILKIGFLNDKVEERRERYMDSYDIVLEKDETLDVVNGLLQHILCQGVQLEMQGP”, the “soluble on expression in E. coli” value was “soluble”.
With “MGSDKIHHHHHHMERPTGVYFQTMTMKQIRERLKQCDLIIIPVGSTENHGPNAPTGEDTFLVTRMAEQVALKTGCTVAEPIWYGYHPYHHIGMPGTVPVKDEAFIDYLVSVIAGFWNTGFRKQILLNGHGQEFVIPIAIHKFAKIFQVPAIIINLNWYHAIQDKFKTKEEGGPYETPFIHADEVETSWSLALFPEFMHQEWAVDTEPKGFLPEGHIDKAGNLLHRPIAWYGHVGGGPIEVVAYPEGVVGKATLASAEKAKEGVEALLDYLEKLVRDIMERFPAGKLPPAEMLSQRPKEELEALTKEPLTEGWRNLYTAGNLWG”, the “soluble on expression in E. coli” value is “not soluble”.
Turning to “MRIGINVGSTQVDAVILSKHGKVVAASETVIQDDETVLAIKEALVSLIRYLRDTDEVRGVFIGATSECQEVKLGKGLAKTGLIRLNRYQSQIQPLMKWPKALSDHVVYTQSVEIGEELDWFNYFQESLARLKEAEVEAIAVVGAFSPMDNCSEQLVKESLNYHLPSIPVTMSHTIGSIGFLERENAAVLNAVLSKKMKNTLKGVKDFLSSLGFHCPLWVTRNDGCLMTIEEAIEFPVLTLGSGSANSFRGGAFLAEERSCIVVHVSEGITKIGTMIQERFEESHSQTYVFGIPTNLRMPHSIVLPLGEEKQGALGHDIRHGNPSEKTKREEVLISERKGISLAERHAGSSASNLEDQQEMWSTLKQSGLDREAMTQYAERVNDSIEELQIYDQELPIVVVGSGAPCMMQRLQSQTREVVAPFGYQRCHAVGACLGMVSAEVDQVYHLKDQTKAEVIEEAKEKAIKEAERKGAFPDTISIEQVEEYPFDYLQGEVIRIRVKAVGQVKDSLEHHHHHH”, the “soluble on expression in E. coli” value is listed as “not soluble”.
On to “MDLSTGVPVSIQLKTIVQQGNEQKDFFFDLEGQLVKMGDTLYIRYKEELLEDTEPTPVTIKIEPDGHVQLIRAGELRMRLRFGYQEKLDTSYRTPYGLLQISTFTHNLRVSLKDQPMSGKILVDYDLYSQTERIGEYHLELEFTA”, for which the “soluble on expression in E. coli” value is on record as “not soluble”.
For the sequence “MYHVPLIPRDAGREETIFRINQSLQKLLRVSDEIFDRVEHRITRIHGKAEAIDRRTEVLEKKLESLQESDKVITFTLPRQLPKLPEEPPTSTSLFRINIDTEHFPGSEELPAFRRADDHVLRPCEPIDFTYELNKPDKFFLTSQVLKEYEQKGWERYKKRLLGGLRELSRSPEHIAELFYAGTSIPAFEGVSGDFSKKALDADDDGGTSRSGRTTDELAQLRLHEQLLEDTALSSTLMQEDSLDDNHPLAFRINFNEKKKKTAKMVEMPDSLPNLKGHAHDFTLRDPEIDEDRLLDILPADDQIPEASEPTEAEADAPTTFILPPPPPPMKLDPSPQPAATPVEITEIPPIISPPAPPPPPPPPPPPPPPQTPSASSSVTFSPTKSVDGGRSDLMAAIRAAGGAGNAKLSRIAEKPKRKGKFDGILESSALLGASETPRNSAPAPDGGGGGGDLMSALSKALDARRKAINGKVEAQPPAKVSSTIPAPPNFDDEEWD”, the “soluble on expression in E. coli” value is “not soluble”.
Take “MPQDSSQGRPRGDDVWVAEAKYDCNTRGRNSIMGNGALKYRTESKNFFNLIPEEVFHNTMKYLDLFLRNLRNIII”: the “soluble on expression in E. coli” value is “not soluble”.
As to “MNDETPRCPYNSLYKPLNLIKSKPDGCFKHNGQCTYGKNLVESVDDGNSRTPYNSIYEPLSLNKPKPDGRSSNGKKPVDNEYVNLPVLSEEQKLADKLAAKLRKLEVKEPKSKKRGSKERKKKKSEPVESTYESLATIEGSTNYSGPVTTESLESNVKFHHASQTAYIGVYSSADAEAQVKNRGEFALYHLFEVGNGIDHLTATLPLMLVYYTTTKKHRHYPVRESGGKGMVQYSVDCGYPIVRKHYSLNQLVQYYKSFGSIQMKQEDTCSEEFSWWLE”, the “soluble on expression in E. coli” value is on record as “not soluble”.
Next, “MWSEYSLEVVDAVARNGSFSAAAQELHRVPSAVSYTVRQLEEWLAVPLFERRHRDVELTAAGAWFLKEGRSVVKKMQITRQQCQQIANGWRGQLAIAVDNIVRPERTRQMIVDFYRHFDDVELLVFQEVFNGVWDALSDGRVELAIGATRAIPVGGRYTFRDMGMLSWSCVVASHHPLALMDGPFSDDTLRNWPSLVREDTSRTLPKRITWLLDNQKRLVVPDWESSATCISAGLCIGMVPTHFAKPWLNEGKWVALELENPFPDSACCLTWQQNDMSPALTWLLEYLGDSETLNKEWLREPEETPATGD”: “not soluble”; “MTLKTSVLALLLDNVHVLLIANPESTTQTQKLFRRVVPALMALDGVSLEARFTHYGGHAEEMVAGLTVDDFDVIIPAGGDGTVNEVINGLLGSAEGDFRNLEDLPAIAVLPTGSANVFARALGYPTDPYAAADALVELIRKNHTRTITLGTWKGDDQGTRWFAVNAGFGIDADVIARVERARSFGFAASPLLYLQVSLRAWVKTQIKPPKITVEAVDSKGHKLQKEEVPMLLASNTNPWTFLGPLPVVTNPQNSFDTGLGLFGLTSVRGFGGVAAMMHLIGVGHGRKLEKLIAKRTIAFDDAEKVTLTCDSDQRFQVDGEYEGKPTKVVLESITDAVRVYAPKTHPTPPIMNWAVHLFKHVRDFLRVRTFGI”: “not soluble”.
Take “MLPDPPRDPFNNLDPAQTVRVLPRHLAGPGQADLETIWAFPFDDGWHLHQGLEGMVFAISPCARLWTRFAPKPEERGADTWTIGMDRAPFGPRAWEITFDATTPAELLRDVHTELLDLYLEDRHSEKNHLVEDPTAPHEVYTPLLTHGWSHSVKTDGTQTFLPPEGLGGVRHRYATTGSDGPVWRAWGGYPSAPHWQAQFSAGAPTTLAAAFTASLISTEPLHRAVKQIPFHTRRHLYVAPAAAPQPPSHLPPAPPSAPHPAGRARLEHHHHHH”: the “soluble on expression in E. coli” value is recorded as “soluble”.
Next, “KRLQKKIDNGELDSFPEVKEVDVECCGQHEVCERDSLLAAVSKQIEYYDDEELDTFIGRAPEDYTPEEADKFRDVFYTMQDTDVAGWVRSLQLRGISLPDEIKDEVFLVVGERRIH”: “not soluble”.
